Assay results published in the DeepSol protein solubility set.

Test: soluble on expression in E. coli; label from the status in PepcDB or PDB records

Sequence | soluble on expression in E. coli
MCNTPTYCDLGKAAKDVFNKGYGFGMVKIDLKTKSCSGVEFSTSGHAYTDTGKASGNLETKYKVCNYGLTFTQKWNTDNTLGTEISWENKLAEGLKLTLDTIFVPNTGKKSGKLKASYKRDCFSVGSNVDIDFSGPTIYGWAVLAFEGWLAGYQMSFDTAKSKLSQNNFALGYKAADFQLHTHVNDGTEFGGSIYQKVNEKIETSINLAWTAGSNNTRFGIAAKYMLDCRTSLSAKVNNASLIGLGYTQTLRPGVKLTLSALIDGKNFSAGGHKVGLGFELEALEHHHHHH | soluble
MAHHHHHHMDGEAAAPTGGAGPKYIVEHLDELEEWSILEYIHICETVKDQNVIFTKFDRPFGEVSEEHNPTCYKQPISELKDKFEWKKICLLDMKATSTLTCSDREHLDYLLFGGILGNVPSDDRTSILRKCQFVISRNLGDMQMTTNTAVLVCHIILDKHVEFKDIPFVDSPEIPLRNEKETMVLPFRFVSKSFFTGMEGDRNVPVLPRNFTEYLIGLGDQRVGDLDEFLSGVVV | soluble
MGSDKIHHHHHHMSDSFDVLWLNASPILKRFDKPLLDYLSGYMRIAQWEYQQTKDEASSIDQAVELLHNFLEWRDRPVHLAGHGMSGAIALTFARRFPQKVRSLTLLSVAAQPANNWQAHYYFQRQLFSISRELVLASTVRSLFGNQPPHTTKKLVAALDKDLEQSPSQHSLFKLVYLPKGGVSMPMMVCGSKSDPVVNPTVLHDWLNWLKPEDKLWECPQGYHFFHYFYPQQVGEEILSFWKRHPSHLLEASALSFSTSTN | not soluble
SRLFSKALKGDHRCGETETPKSCSEVAGCKAAMRHQGKIPEELSLDDRARTQKKWGRGKWEPEPSSKPPREATLEERHARGEKHLGVEIEKTSGEIIRCEKCKRERELQQSLERERLSLGTSELDMGKGPMYDVEKLVRTRSCRRSPEANPASGEEGWKGDSHRSSPRNPTQELRRPSKSMDKKEDRGPEDQESHAQGAAKAKKDLVEVLPVTEEGLREVKKDTRPMSRSKHGGWLLREHQAGFEKLRRTRGEEKEAEKEKKPCMSGGRRMTLRDDQPAKLEKEPKTRPEENKPERPSGRKPRPMGIIAANVEKHYETGRVIGDGNFAVVKECRHRETRQAYAMKIIDKSRLKGKEDMVDSEILIIQSLSHPNIVKLHEVYETDMEIYLILEYVQGGDLFDAIIESVKFPEPDAALMIMDLCKALVHMHDKSIVHRDLKPENLLVQRNEDKSTTLKLADFGLAKHVVRPIFTVCGTPTYVAPEILSEKGYGLEVDMWAAGVILYILLCGFPPFRSPERDQDELFNIIQLGHFEFLPPYWDNISDAAKDLVSRLLVVDPKKRYTAHQVLQHPWIETAGKTNTVKRQKQVSPSSEGHFRSQHKRVVEQVS | soluble
MASSSSAALRPFGTARLTPGRQTGRQTQQQISAPEPMIAIALSDMEYLMRSARSSRSSGRSERQPGCTCCCHIAAGVTVIPRVARFSIEGGLSTHTLMNHSDNRIAVKITCSDNNMYRVTPVYATVEPGQSLPLHIARITSDLIKRDRLCVNILEADGNKEAREIFKKNANTRAPASINMALEATNDNQNHHHQE | not soluble
TQVFDLEGYGAISRAMGGTSSSYYTGNAALISNPATLSFAPDGNQFELGLDVVTTDIKVHDSHGAEAKSSTRSNNRGPYVGPQLSYVAQLDDWRFGAGLFVSSGLGTEYGSKSFLSQTENGIQTSFDNSSRLIVLRAPIGFSYQATSKLTFGASVDLVWTSLNLELLLPSSQVGALTAQGNLSGGLVPSLAGFVGTGGAAHFSLSRNSTAGGAVDAVGWGGRLGLTYKLTDNTVLGAMYNFKTSVGDLEGKATLSAISGDGAVLPLDGDIRVKNFEMPASLTLGLAHQFNERWVVAADIKRAYWGDVMDSMNVAFISQLGGIDVALPHRYQDITVASIGTAYKYNNDLTLRAGYSYAQQALDSELILPVIPAYLKRHVTFGGEYDFDKDSRINLAISFGLRERVQTPSYLAGTEMLRQSHSQINAVVSYSKNFHHHHHH | soluble
MPPRPRMLAAAITAALALGAQAVPAAAADGPAGDSTATTSRGVEIPAFYTPPSELPAADGTLIRHEPLPLALSLPGIDGPLPGRATRLMYKSTDANGEAVAVTGAYVEPAAKWRGDGPRPLVAVAPGTMGQGDQCAASMALEHPLQLNGQTVSVGYEDLSVYRLLLRGVAVVVTDYVGLGTTDRLHTYVNRVDGAHAVLDAVRAARSLDSASVTSDSRVGLFGYSQGGGATAAAAELQPSYAPDVQLAGTYAGAPPADLTEVTKAIDGSDLAGALGWSLNGFLQTEPALRPIADRYINEAGQEALKDLSTMCVGDALFGYGGDSSTDWTRTGQSISDVIRAEPALQSFLAEQRIGSTAPGSPVRVATGVSDDLVPHGQARRLAVDWCGKGGKVTYVPVLIPGVGSGLLNHFAPLLADQGNAIAWLTDRLSGEPAGSNCWSMPVQPLEHHHHHH | soluble
MDLPVMPPVKPMLAKSVAKIPPDMQYEAKWDGFRAIVFRDGTEVELGSRTGKPLTRYFPELVEALRDRLPERCVIDGEIVIARDGRLDFDALTERIHPAESRVRMLAEKTPASFVAFDLLALADDSLLDTPLTERRALLESALSGVTAPVHVAPATTDREVAEQWFEQYEGAGLDGVIAKPLTLRYRQDERAMFKVKHERTADVVVAGYRLHKSGPVVGSLLLGLYDDRGALQHVGVSAAFPMKRRAELVEELEPLRMEDAAGHPWAAWSNEAAHETARLPGAPSRWSGKKDLSWVPLRPERVAEVAYDHMENGARFRHTARFRRWRPDRTPESCTYAQLEEPVSYDLTEILGSRGLEHHHHHH | soluble
MLLVSGCSGELYSSHTHSLRWFCQSPEGCEREAEVKALARVLLYTDTFTLYTDYGQFAVDFVQRVPSDELPRECDALYGLSLFGHELESSTLCSVGGDAYEMRISVPNRNPSSASEWLAEMRPL | not soluble
MDEEERTSSRGWMREFKYPSNLRDITEEARISLSSVAHFDELLHESSELAWRTNMSPPHRALFTFSKKTDISYVMLFLDYSRDESYCPQEVRIDLGDGTNDWWLKMYRRVDQPKGWVKIPIHDAFGNPLRVMSLQMTIMKNHEKGRDCVVRHFRVLGPFRSRYDSMNRMILGPSAVLEARPGTEPIKDAIMNHYQSMR | not soluble
MGSDKIHHHHHHMKHAYLIIAHNEFEILKRLIQALDDERNDIYIHFDRKLNHYPDCRTSYAKLTFLEERMDVRWGDISVVDAEFALFDEAYRRGEYSYYHLLSGVDMPLKTQNYIHRFFEKNAGKEFVGYYQGNISKEIDRKVCRWHLFPKSFKETEGGLAVTKRVLRAGCVRLQSLLGIRRNKDINFRKGTQWLSISNELVGYLLQQQKEVRRVYTHTFCADEIFVQTICWNSSFRDRVYDMHDEGHGCLRMIGWKDNQLEEWKEKDFEILMNSEALFARKFSIRHIEVVDQILNEISK | not soluble
SSIEFLAVEKQKIIAKETLELYAKIAGRIGMYPVKTQLADLSFKVLDPKNFNNTLSKINQQKVFYDNEWGNFKKQLEEMLEQNQIEYRLE | not soluble
MTPYAFTDPRKSELYVVEGDSAGGSAKSGRDSMFQAILPLRGKIINVEKARIDRVLKNTEVQAIITALGTGIHDEFDIGKLRYHKIVLMADADVDGQHISTLLLTLLFRFMRPLIENGHVFLAQPPLYKLKWQRSDPEFAYSDRERDGLLEAGLKAGKKINKEDGIQRYKGLGEMDAKELWETTMDPSVRVLRQVTLDDAAAADELFSILMGEDVDARRSFITRNAKDVRFLDVKLAAALEHHHHHH | soluble
MQRKGDTPATLDLFADQTPQPRRDEQIGPGSWLFSGFALPAMPTLLLALEQTLGHSPFRHMLTPGGLSMSAALSSCGPLGWITDRHGYRYSDVDPQTGQPWPAMPDAFMQLAQSAALAAGYRGFVPDACLINRYIPGAKMSLHQDKDEHDHRWPVVSVSLGIPAIFQFGGMQRSDKTRRISLFHGDVVVWGGEDRLRFHGILPIKQAEHPLLGEQRINLTFRKAGRDSLEHHHHHH | soluble
GPGSMKVSSFIVQLRPGFFRLMIHAKPGARSTALAAQPQALDEALEVRLAAPPVDGKANTELVEFMQTLLEQQLATLRITQKQHLRKSGCEDGEDEVYTYEHYAKKKKSKNNKRMNEDSKSGEAKVEYPDDKVRVSLVSGLTSRNKVLEVTFPGTEEDLLAVLKSADFS | soluble
MGSDKIHHHHHHTDENETNNGKRTDCYNGTPLTVRATATGFENVPGSEKPSTRASVTDEHLKTEFVDGDSIGIFSIKDSTIVDDINNIPLVYNVSNDSWNPVENSKTLYWYDGASYIAYYPYRKNITLDVSKDTDEAIASLTRNEKLQPSKDQSTKEKHTVSDLLIATGVPTTGNSSGIILNLQFKHQFTLLVLQPQAYIGCFAPENAGFVYHKESRILGTDSAAINVNLNGITPYQIDSVKFCAIVPSQKNARITGSYVTADGRNNTNTKINYSGSSITFASGKCYTLKVISPVPGKGSTERKLYPGDFVFQNETEKRIEIHPGDGMLEENGKIYDYQNAIGMVITCDSKKMTDVKCNENGWNHAYVMGFENLGTGRWGGMERIEEGITPMTKDDEIEKNMNGYSETEQMLKNYTANVQGSYSAFESIRKYRNSNKIPDGLNRSPWFVPSIGQWFDMLVNICGKSPRDFRNETSNGLNDTGWGQETLDKLTIQLSKVGNSLPQFSDTYRLGFSCSSQYDKDRCWMLLWHIDDPEYPNWDRVCLQGYDKKAYWNVRPFFAF | not soluble
STPGPGASAPNSPMALLTLNCEKEMDDVIEDIISLESSYSDDILGFMDAGLQMTNTIPVSANLLDMYSNHALPPAGVSISNSCPSSLPAVKRELSVTPSPGMMHIMDKAGPCGKFDSYQRPDGFPVEVRALAKERQKKDNHNLIERRRRFNINDRIKELGTLIPKSNDPDMRWNKGTILKASVDYIRKLQKEQQNAKELENRQKRLEHANRHLLLRIQELEMQARAHGLTVVASSSLYSAELVARAIKQEPGMGDCTSNLYPHLPSPDMSRPTTLDLNNGTISYNDSPTEDGEPGVYDSPNKASTKLEDMLMDNTLSPVGSSDPLLSSGSPVPSNSSGSSSMDEHDNGC | not soluble
MGQDRGFGFPTQRLCSLSSLALSHLGKQDLNLVSKTCGDTTDMFSTRGSYQVSTQVSQSYFDGYCGWVHGSSHLQQQFLPPQNQCMKQVPLQVDGVISKAEEQCSQKRFLVFDQSGDQTTLLLASDIRKSFETLKQHACPDMKEELQRSNKDLFVCHGMQGNSEPDLKEDSEELNALLYSEDESGYCSEEDEVTSADHSPSIVVSGREDQKTFLGSYGQPLNAKKRKILETSNESMRDAESSCGSCDNTRISFLKRSKLSSNKIGEEKIFETVSLLRSVVPGEELVDPILVIDRAIDYLKSLKMEAKNREA | soluble
